{"source": "patent US20160130322A1", "key": {"[1]": {"target": "acylated ghrelin (AG) (mouse) (UniProt Q9EQX0)", "assay": "cell-based or functional assay"}, "[2]": {"target": "unacylated ghrelin (UAG) (mouse) (UniProt Q9EQX0)", "assay": "cell-based or functional assay"}}}
{"substance": "GHSR/Fc (Nt-EC1-EC2 of mouse GHS-R1a fused with a mouse IgG constant region (Fc)) (Fc fusion)", "values": [{"measurement": "levels of AG in circulation of mice expressing GHSR/Fc (plasma enzyme-linked immunoassay)", "setting": "[1]", "value": 1.41, "unit": "pg/mL"}, {"measurement": "levels of total ghrelin (primarily UAG) in circulation of mice expressing GHSR/Fc (plasma radioimmunoassay)", "setting": "[2]", "value": 141, "unit": "pg/mL"}]}
